Data reported in the nanobody polyreactivity screen of Harvey et al. (2022).

Test: yeast display, Sf9 membrane polyspecificity reagent, FACS + sequencing; frameworks hold sequencing errors
How it was run: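 A nanobody's polyreactivity label depends on the gate it was sorted from. Yeast display cells were stained with 10% biotinylated, detergent-solubilized Sf9 membrane reagent for 1 hour at 4 °C, enriched on streptavidin microbeads and sorted by FACS. The low and high (top ~1%) gates were set on anti-HA fluorescence for expression and streptavidin fluorescence for reagent binding.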

Sequence	polyreactivity (PSR sort gate)
QVQLVESGGGLVQAGGSLRLSCAASGSTLVSYAMGWYRQSPGKERELVATISWRGGSTYYADSVKGRFTISRDNAKNTVYLQMNSLKPEDTAVYYCAADLWHSQYYYGYEYWGQGTQVTVSS	low polyreactivity
QVQLVESGGGLVQAGGSLRLSCAASGSTLVTHAMGWYRQAPGKERELVAGISRSGGSTYYADSVKGRFTISRDNAKNTVYLQMNSLKPEDTAVYYCAARNYRYLYRMEYWGQGTQVTVSS	high polyreactivity
QVQLVESGGGLVQAGGSLRLSCAASGSTLVTNAMGWYRQAPGKERELVAAITFSGGTTYYADSVKGRFTISRDNAKNTVYLQMNSLKPEDTAVYYCAAEIWLEYVGYDYWGQGTQVTVSS	high polyreactivity
QVQLVESGGGLVQAGGSLRLSCAASGSTLVTNAMGWYRQAPGKERELVAAITFSGGTTYYADSVTGRFTISRDNAKNTVYVQMNSLKPEDTAVYYCAAEIWLEYVGYDYWGQGTQVTVSS	high polyreactivity
QVQLVESGGGLVQAGGSLRLSCAASGSTLVTYAMGWYRQAPGKERELVAAISWRGGSTYYADSVKGRFTISRDNAKNTVELQMNSLKPEDTAVYYCNKLRAYKESETYYYWGQGTQVTVSS	low polyreactivity
QVQLVESGGGLVQAGGSLRLSCAASGSTLWSNTMGWYRQAPGKERELVDAISSGGGSTYADSVKGRFTISRDNAKNTVYLQMNSLKPEDTAVYYCAASAYYYRHSSWHRRDYWGQGTQVTVSS	high polyreactivity
QVQLVESGGGLVQAGGSLRLSCAASGSTLWTYAMGWYRQAPGKERELVAAISGGGGSTYYADSVKGRFTISRDNAKNTVYLQMNSLKPEDTAVYYCAAVTWVGWGQRRRDYWGHGTQVTVSS	high polyreactivity
QVQLVESGGGLVQAGGSLRLSCAASGSTLWVYAMGWYRQAPGKERELVAAITQSTGDTHYADSVKGRFTISRDNAKNTVYLQMNSLKPEDTAVYYCAADSYLSVYDPYGYWGQGTQVTVSS	low polyreactivity
QVQLVESGGGLVQAGGSLRLSCAASGSTLYGYAMGWYRQAPGKVRELVAAISSRAVRTYYADSVKGRFTISRDNAKNTVYLHMNSLKPEDTAVYYCAAKRSYAYEYWGQGTQVTVSS	high polyreactivity
QVQLVESGGGLVQAGGSLRLSCAASGSTLYKYAMGWYRQSPGKERELVAAISWSGSSTYYADSVKGRFTISRDNAKNTVYLQMNSLKPVDTAVYYCAAYPRPYIGYTDVYVWYEFDYWGQGTQVTVSS	low polyreactivity
QVQLVESGGGLVQAGGSLRLSCAASGSTLYNNAMGWYRQAPGKERELVAAITRRGGSTYYADSVKGRFTISRDNAKNTVYLQMNSLNPEDTAVYFCAADDSRYASGQFQEEYDYWGLGTQVTVSS	low polyreactivity
QVQLVESGGGLVQAGGSLRLSCAASGSTLYRYAMGWYRQAPGKERELVAAISSSGGSTYYADSVKGRFTISRDNAKNTVYLQMNSLKPEDTAVYYCAATSSFYFILYDYWGQGTQVTVSS	high polyreactivity
QVQLVESGGGLVQAGGSLRLSCAASGSTLYRYAMGWYRQAPGQERELFATIRSGVNTNYADSVKGRFTISRDNAKNTVYLQMNSLKPEDTAVYYCNARTVYGVYWGRYDYWGQGTQVTVSS	high polyreactivity
QVQLVESGGGLVQAGGSLRLSCAASGSTLYSYAMGWYRQAPGKEREFVAAITSDDGSTYYADSVKGRFTISRDNAKNTVYLQMNSLKPEDTAVYYCATAASVEYNYWGQGTQVTVSS	low polyreactivity
QVQLVESGGGLVQAGGSLRLSCAASGSTLYYNAMGWYRQAPGKERELVAAITSGGSTSYADSVKGRFTISRDNAKNTVYLQMNSLKPEDTAVYYCAAVFYRRFDYWGQGTQVTVSS	low polyreactivity
QVQLVESGGGLVQAGGSLRLSCAASGSTLYYYTMGWYRQAPGKERELVAAINWSGTITYYADSVKGRFTISRDNAKNTVYLQMNSLKPEDTAVYYCNAVYYRQGFDYWGQGTQVTVSS	high polyreactivity
QVQLVESGGGLVQAGGSLRLSCAASGSTMRFYAMGWYRQAPGKERELVAAISSSGSSTYYADSVKGRFTISRDNAKNTVYLQMNSLKPEDTAVYYCSGYGYWGQGTQLTVSS	high polyreactivity
QVQLVESGGGLVQAGGSLRLSCAASGSTQFGYAIGWYRQAPGKEREFVAAITSGGNTYYADSVKGRFTISLDNAKYTVYLQMNSLKPEDTAVFYCNKRYRSFAARLRGYDYWGQGTQVTVSS	high polyreactivity
QVQLVESGGGLVQAGGSLRLSCAASGSTQKYAMGWYRQAPGKERELVAAIRRTGGSTYYADSVKGRFTISRDNAKNTVYLQMNSLKPEDTAVYYCAADPYNYYVSGYDYWGQVTQVTVSS	low polyreactivity
QVQLVESGGGLVQAGGSLRLSCAASGSTQTVNVMGWYRQAPGKEREFVAAINDSGSTYYADSVKGRFTISRDNAKNTVYLQMNSLKPEDTAVYYCATYYWLGLSLYDYWGQGTQVTVSS	low polyreactivity
QVQLVESGGGLVQAGGSLRLSCAASGSTRRYYAMGWYRQAPGKERELVAAITRLGSTNYADSVKGRFTISRDNAKNTVYLQMNSLKPEDTAVYYCNTRWRYRPYRYRGDGGDYWAQGTQVTVSS	high polyreactivity
QVQLVESGGGLVQAGGSLRLSCAASGSTSAPNAMGWYRQAPGKERELVAAISWTGGSTSYADSVKGRFTISRDNAKNTVYLQMNSLKPPDTAVYYCAKRSYGLTRAYSAGNYWGQGTQVTVSS	low polyreactivity

Sequence	polyreactivity (PSR sort gate)
QVQLVESGGGLVQAGGSLRLSCAASGSTSASYAMGWYRKAPGKERELVAAISGRGTTTYYADSVKGRFTISRDIAKNSVYLQMNSLKPEDTAVYYCAVYRRGGVEAFLYWGQGTQVTVSS	high polyreactivity
QVQLVESGGGLVQAGGSLRLSCAASGSTSDINAMGWYRQAPGKERELVAAITSRSGSTYYADSVKGRFTISRDNAKNTVYLQMNSLKPEDTAVYYCAAEYVRFYWYTSDYWGQGTQVTVSS	low polyreactivity
QVQLVESGGGLVQAGGSLRLSCAASGSTSDLYAMGWYRQAPGKERELVAAITWSGDSTYYADSVKGRFTISRDNAKNTVYLQMNSLKPEDTAVYYCNAEYYDYFDYESDYWGQGTQVTVSS	low polyreactivity
QVQLVESGGGLVQAGGSLRLSCAASGSTSDTNVMGWYRQPPAKERELVAAISNDDDRTYYADSVKGRFTSSRDNAKNTVYLQMNSVKPEDTAVYYCATADDYPGDDYLEGGYWGQGTQVTVSS	low polyreactivity
QVQLVESGGGLVQAGGSLRLSCAASGSTSGSYAMGWYRQAPGKERELVATISWSGGRTYYADSVKGRFTISRDNAKNTVYLQMNSLKPEDTAVYYCAARRYAFRYYGYDYWGQGTQVTVSS	high polyreactivity
QVQLVESGGGLVQAGGSLRLSCAASGSTSLYNMGWSRQAPGKERELVAAIDSGSTNYADSVKGRFTISRDNAKNTVYLQMNSLKPEDTAVYYCAADGTNIGVYDRASYRDDYWGQGTQVTVSS	low polyreactivity
QVQLVESGGGLVQAGGSLRLSCAASGSTSNTMTWDGIDRRLGKKGSWLPPITVSGGGTYYADSVKGRFTISRDNANNTVYLQMNSLKPEDTAVYYCATEYELAIYGDDYWGQGTQVTVSS	low polyreactivity
QVQLVESGGGLVQAGGSLRLSCAASGSTSPINAMRWYRQAPGKERELVAVISSSGGRTYYADSVKGRFTISRDNAKNTVYLQMNSLKPEDTAVYYFDKRFSRRQPDYDYWGQGTQVTVSS	high polyreactivity
QVQLVESGGGLVQAGGSLRLSCAASGSTSQTYAMGWYRQAPGKERELVASMTRSGVRTYYADSVKGRFTISRDNAKYTVYLQMNSLKPEDTAVYYCAAKYSYGFYRTGYYWGQGTQVTVSS	high polyreactivity
QVQLVESGGGLVQAGGSLRLSCAASGSTSQYYAMGWYRQAPGKERELVAVISWSGGSTYYADSVKARFTISRDNAKNTVYLEMNSLKPEDTAVYYCAARYRRRVIATRDYWGQGTQVTVSS	high polyreactivity
QVQLVESGGGLVQAGGSLRLSCAASGSTSSLYTMGWYKQAPGKERELVAAITVSGSRTYYADSVKGRFTISRDNAKNTVYLQMNSLKPEDTAVYYCNAYPYYLVRNMDSWGQGTQVTVSS	high polyreactivity
QVQLVESGGGLVQAGGSLRLSCAASGSTSVPYTMGWYRQAPGKERELVAAISSSGGTTNYADSVKGRFTISRDNAKNTVYLQMNSLKPEDTAVYYCAAEYYQWVAYSWNEMYYWGQGTQVTVSS	low polyreactivity
QVQLVESGGGLVQAGGSLRLSCAASGSTSVQYAKGWYRQAPGKERELVAAIDRSGGSTSYADSVKGRFTISRDNAKNTVYLQMNSLKPEDTAVYYCNADPVRSTYSYDYWGLGTQVTVSS	low polyreactivity
QVQLVESGGGLVQAGGSLRLSCAASGSTSVQYAMGWYRQAPGKERELVAAIDRSGGSTSYADSVKGRFTISRDNAKNTVYLQMNSLKPEDTAVYYCNADPVRSTYSYDYWGQGTQVTVSS	low polyreactivity
QVQLVESGGGLVQAGGSLRLSCAASGSTSVQYAMGWYRQAPGKERELVAAIDRSGGSTSYADSVKGRFTISRYNAKNTVYLQMNSLKPEDTAVYYCNADPVRSTYSYDYWGQGTQVTVSS	low polyreactivity
QVQLVESGGGLVQAGGSLRLSCAASGSTSVVNAMGWYRQAPGKERELVATITRSAGRTYYADSVKGRFTISRDNAKNTVYLQMNSLKPEDTAVSYCAKDTDISTHHSKGRAKSRYDYWGQGTQVTVSS	low polyreactivity
QVQLVESGGGLVQAGGSLRLSCAASGSTSWSYAMGWYRQAPGKERELVAAITRTGSTNYADSVKGRFTISRDNAKNTVYLQMNSLKPEDTAVYYCVYATLRYDYWGQGTQVTVSS	low polyreactivity
QVQLVESGGGLVQAGGSLRLSCAASGSTSYNAMGWYIQAPGKERELVAAISDGGGSTYYADSVKGRFTISRDNAKNTVYLQMNSLKPEDTAVYYCAADTITGDGYWGQGTQVTVSS	low polyreactivity
QVQLVESGGGLVQAGGSLRLSCAASGSTSYVYAMGWYRQAPGKERELVAAISGSGGRTYYADSVKGRFTISRDNAKNTVYLQMNSLKPEDTAVYYCAADYIFRRYPVGGIYDYDYWGQGTQVTVSS	high polyreactivity
QVQLVESGGGLVQAGGSLRLSCAASGSTSYWYAMGWYRQAPGKESELVATIRSRGGSTSYADSVKGRFTIARDNAKNTVYLQMNSLKPEDTAVNYCNTRKLYQVDYDYLGQGTQVTVSS	high polyreactivity
QVQLVESGGGLVQAGGSLRLSCAASGSTVDRYAMGGYRQAPGKERELVAAITSSGGSTYDADSVKGRFTISRDNAKNTVYVQMNSLKPEDTAVYYCNALITYSTDYWGQGTQVTVSS	low polyreactivity
